Assay results taken from patent US20220411483A1 (Chugai, published 2022).

T1: FcgRIIb (human, UniProt P31994 43-217)
T1 construct: extracellular domain; also called FcγRIIb
T1 sequence (looked up): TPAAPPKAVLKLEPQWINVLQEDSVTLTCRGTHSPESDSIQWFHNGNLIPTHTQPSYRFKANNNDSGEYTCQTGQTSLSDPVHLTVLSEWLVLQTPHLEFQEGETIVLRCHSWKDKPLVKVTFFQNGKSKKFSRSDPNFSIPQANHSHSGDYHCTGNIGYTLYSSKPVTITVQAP

T2: FcgRIIaR (human, UniProt P12318 34-217)
T2 construct: extracellular domain; also called FcγRIIa R type; FcγRIIa (R type)
T2 sequence (looked up): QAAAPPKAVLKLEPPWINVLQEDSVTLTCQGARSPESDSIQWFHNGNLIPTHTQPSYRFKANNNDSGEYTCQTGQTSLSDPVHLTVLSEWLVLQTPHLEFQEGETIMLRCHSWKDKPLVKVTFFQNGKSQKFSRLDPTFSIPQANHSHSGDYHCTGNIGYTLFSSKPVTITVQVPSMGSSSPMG


What was measured:
FcgRIIb = molecular target: T1, FcgRIIb; experiment: SPR, amount bound per captured antibody
FcgRIIaR = molecular target: T2, FcgRIIaR; experiment: SPR, amount bound per captured antibody
human complement C1q = molecular target: T3, human complement C1q (human, UniProt P02745 23-245; P02746 28-253; P02747 29-245); experiment: SPR, C1q bound per antibody captured on Protein L
T3 construct: Bought (PROSPEC or Calbiochem); also called human C1q
T3 sequence (P02745 23-245 limits assumed, chain 1 of 3): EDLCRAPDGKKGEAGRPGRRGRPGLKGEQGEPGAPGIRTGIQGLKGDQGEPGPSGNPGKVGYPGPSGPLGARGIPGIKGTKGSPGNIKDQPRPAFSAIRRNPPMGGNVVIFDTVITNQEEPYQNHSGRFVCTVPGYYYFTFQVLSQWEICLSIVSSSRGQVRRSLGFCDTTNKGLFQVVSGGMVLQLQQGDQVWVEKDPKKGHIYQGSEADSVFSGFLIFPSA
T3 sequence (P02746 28-253 limits assumed, chain 2 of 3): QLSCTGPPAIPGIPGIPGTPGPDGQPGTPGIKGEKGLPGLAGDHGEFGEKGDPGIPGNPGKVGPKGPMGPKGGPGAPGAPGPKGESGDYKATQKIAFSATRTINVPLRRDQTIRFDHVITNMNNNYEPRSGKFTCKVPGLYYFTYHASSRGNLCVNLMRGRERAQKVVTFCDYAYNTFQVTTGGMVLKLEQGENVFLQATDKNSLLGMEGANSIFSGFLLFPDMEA
T3 sequence (P02747 29-245 limits assumed, chain 3 of 3): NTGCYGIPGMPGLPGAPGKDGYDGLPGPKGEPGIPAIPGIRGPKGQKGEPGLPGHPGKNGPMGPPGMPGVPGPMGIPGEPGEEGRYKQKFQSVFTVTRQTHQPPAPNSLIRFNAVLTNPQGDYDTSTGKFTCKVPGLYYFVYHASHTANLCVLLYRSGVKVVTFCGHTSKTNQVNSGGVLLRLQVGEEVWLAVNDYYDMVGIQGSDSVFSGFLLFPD
Description: The interaction between an antibody and human C1q was analyzed using Biacore T200 (GE Healthcare). HBS-EP+ (GE Healthcare) was used as the running buffer, and the measurement temperature was set at 25° C. Chips produced by immobilizing Protein L (ACTIGEN or BioVision) onto Series S sensor Chip CM4 (GE Healthcare) by amine coupling were used.
The antibodies of interest were captured onto these sensor chips, and allowed to interact with human complement C1q (PROSPEC or Calbiochem) diluted in the running buffer. The amount of antibody binding was determined, and comparisons were made among the antibodies. However, since the amount of C1q bound depends on the amount of captured antibodies, corrected values obtained by dividing the amount of C1q bound by the amount of each antibody captured were compared. Furthermore, by reaction with 10 mM glycine-HCl, pH 1.5, the antibodies captured onto the sensor chips were washed, and the sensor chips were recycled and reused.

Binder	Relative FcgRIIb-binding Activity (FcgRIIb)	Relative FcgRIIaR-binding Activity (FcgRIIaR)	Amount of C1q-binding when that for G1d is Defined as 100 (human complement C1q)
IL6R-P748/IL6R-L (antibody, human IgG1, kappa) heavy: QVQLQESGPGLVKPSETLSLTCAVSGHSISHDHAWSWVRQPPGEGLEWIGFISYSGITNYNPSLQGRVTISRDNSKNTLYLQMNSLRAEDTAVYYCARSLARTTAMDYWGEGTLVTVSSASTKGPSVFPLAPSSKSTSGGTAALGCLVKDYFPEPVTVSWNSGALTSGVHTFPAVLQSSGLYSLSSVVTVPSSSLGTQTYICNVNHKPSNTKVDKKVEPKSCDKTHTCPPCPAPELLGQDSVMLFPPKPKDTLMISRTPEVTCVVVDVSPEDPEVKFNWYVDGVEVHNAKTKPREEQENSTYRVVSVLTVLHQDWLNGKEYKCAVSNKALPHPIEKTISKAKGQPREPQVYTLPPSRDELTKNQVSLTCLVKGFYPSDIAVEWESNGQPENNYKTTPPVLDSDGSFFLYSKLTVDKSRWQQGNVFSCSVMHEALHNHYTQKSLSLSP light: not shown	42.7 IL6R-G1d/IL6R-L=100	5.1 IL6R-G1d/IL6R-L=100	1.4 G1d=100
IL6R-P749/IL6R-L (antibody, human IgG1, kappa) heavy: QVQLQESGPGLVKPSETLSLTCAVSGHSISHDHAWSWVRQPPGEGLEWIGFISYSGITNYNPSLQGRVTISRDNSKNTLYLQMNSLRAEDTAVYYCARSLARTTAMDYWGEGTLVTVSSASTKGPSVFPLAPSSKSTSGGTAALGCLVKDYFPEPVTVSWNSGALTSGVHTFPAVLQSSGLYSLSSVVTVPSSSLGTQTYICNVNHKPSNTKVDKKVEPKSCDKTHTCPPCPAPELLGQDSVMLFPPKPKDTLMISRTPEVTCVVVDVSPEDPEVKFNWYVDGVEVHNAKTKPREEQENSTYRVVSVLTVLHQDWLNGKEYKCEVSNKALPHPIEKTISKAKGQPREPQVYTLPPSRDELTKNQVSLTCLVKGFYPSDIAVEWESNGQPENNYKTTPPVLDSDGSFFLYSKLTVDKSRWQQGNVFSCSVMHEALHNHYTQKSLSLSP light: not shown	73.9 IL6R-G1d/IL6R-L=100	6.8 IL6R-G1d/IL6R-L=100	13.8 G1d=100
IL6R-P753/IL6R-L (antibody, human IgG1, kappa) heavy: QVQLQESGPGLVKPSETLSLTCAVSGHSISHDHAWSWVRQPPGEGLEWIGFISYSGITNYNPSLQGRVTISRDNSKNTLYLQMNSLRAEDTAVYYCARSLARTTAMDYWGEGTLVTVSSASTKGPSVFPLAPSSKSTSGGTAALGCLVKDYFPEPVTVSWNSGALTSGVHTFPAVLQSSGLYSLSSVVTVPSSSLGTQTYICNVNHKPSNTKVDKKVEPKSCDKTHTCPPCPAPELFGQDSVMLFPPKPKDTLMISRTPEVTCVVVDVSPEDPEVKFNWYVDGVEVHNAKTKPREEQENSTYRVVSVLTVLHQDWLNGKEYKCEVHNKALPAPIEKTISKAKGQPREPQVYTLPPSRDELTKNQVSLTCLVKGFYPSDIAVEWESNGQPENNYKTTPPVLDSDGSFFLYSKLTVDKSRWQQGNVFSCSVMHEALHNHYTQKSLSLSP light: not shown	103 IL6R-G1d/IL6R-L=100	10.4 IL6R-G1d/IL6R-L=100	14 G1d=100
IL6R-P751/IL6R-L (antibody, human IgG1, kappa) heavy: QVQLQESGPGLVKPSETLSLTCAVSGHSISHDHAWSWVRQPPGEGLEWIGFISYSGITNYNPSLQGRVTISRDNSKNTLYLQMNSLRAEDTAVYYCARSLARTTAMDYWGEGTLVTVSSASTKGPSVFPLAPSSKSTSGGTAALGCLVKDYFPEPVTVSWNSGALTSGVHTFPAVLQSSGLYSLSSVVTVPSSSLGTQTYICNVNHKPSNTKVDKKVEPKSCDKTHTCPPCPAPELFGQDSVMLFPPKPKDTLMISRTPEVTCVVVDVSPEDPEVKFNWYVDGVEVHNAKTKPREEQENSTYRVVSVLTVLHQDWLNGKEYKCEVSNKALPAPIEKTISKAKGQPREPQVYTLPPSRDELTKNQVSLTCLVKGFYPSDIAVEWESNGQPENNYKTTPPVLDSDGSFFLYSKLTVDKSRWQQGNVFSCSVMHEALHNHYTQKSLSLSP light: not shown	72.5 IL6R-G1d/IL6R-L=100	7.4 IL6R-G1d/IL6R-L=100	13.9 G1d=100
IL6R-P752/IL6R-L (antibody, human IgG1, kappa) heavy: QVQLQESGPGLVKPSETLSLTCAVSGHSISHDHAWSWVRQPPGEGLEWIGFISYSGITNYNPSLQGRVTISRDNSKNTLYLQMNSLRAEDTAVYYCARSLARTTAMDYWGEGTLVTVSSASTKGPSVFPLAPSSKSTSGGTAALGCLVKDYFPEPVTVSWNSGALTSGVHTFPAVLQSSGLYSLSSVVTVPSSSLGTQTYICNVNHKPSNTKVDKKVEPKSCDKTHTCPPCPAPELFGQDSVMLFPPKPKDTLMISRTPEVTCVVVDVSPEDPEVKFNWYVDGVEVHNAKTKPREEQENSTYRVVSVLTVLHQDWLNGKEYKCAVHNKALPAPIEKTISKAKGQPREPQVYTLPPSRDELTKNQVSLTCLVKGFYPSDIAVEWESNGQPENNYKTTPPVLDSDGSFFLYSKLTVDKSRWQQGNVFSCSVMHEALHNHYTQKSLSLSP light: not shown	62.9 IL6R-G1d/IL6R-L=100	7.2 IL6R-G1d/IL6R-L=100	1.1 G1d=100
IL6R-P754/IL6R-L (antibody, human IgG1, kappa) heavy: QVQLQESGPGLVKPSETLSLTCAVSGHSISHDHAWSWVRQPPGEGLEWIGFISYSGITNYNPSLQGRVTISRDNSKNTLYLQMNSLRAEDTAVYYCARSLARTTAMDYWGEGTLVTVSSASTKGPSVFPLAPSSKSTSGGTAALGCLVKDYFPEPVTVSWNSGALTSGVHTFPAVLQSSGLYSLSSVVTVPSSSLGTQTYICNVNHKPSNTKVDKKVEPKSCDKTHTCPPCPAPELLGQDSVMLFPPKPKDTLMISRTPEVTCVVVDVSPEDPEVKFNWYVDGVEVHNAKTKPREEQENSTYRVVSVLTVLHQDWLNGKEYKCAVHNKALPHPIEKTISKAKGQPREPQVYTLPPSRDELTKNQVSLTCLVKGFYPSDIAVEWESNGQPENNYKTTPPVLDSDGSFFLYSKLTVDKSRWQQGNVFSCSVMHEALHNHYTQKSLSLSP light: not shown	85.8 IL6R-G1d/IL6R-L=100	5.6 IL6R-G1d/IL6R-L=100	1.8 G1d=100
IL6R-P755/IL6R-L (antibody, human IgG1, kappa) heavy: QVQLQESGPGLVKPSETLSLTCAVSGHSISHDHAWSWVRQPPGEGLEWIGFISYSGITNYNPSLQGRVTISRDNSKNTLYLQMNSLRAEDTAVYYCARSLARTTAMDYWGEGTLVTVSSASTKGPSVFPLAPSSKSTSGGTAALGCLVKDYFPEPVTVSWNSGALTSGVHTFPAVLQSSGLYSLSSVVTVPSSSLGTQTYICNVNHKPSNTKVDKKVEPKSCDKTHTCPPCPAPELLGQDSVMLFPPKPKDTLMISRTPEVTCVVVDVSPEDPEVKFNWYVDGVEVHNAKTKPREEQENSTYRVVSVLTVLHQDWLNGKEYKCEVHNKALPHPIEKTISKAKGQPREPQVYTLPPSRDELTKNQVSLTCLVKGFYPSDIAVEWESNGQPENNYKTTPPVLDSDGSFFLYSKLTVDKSRWQQGNVFSCSVMHEALHNHYTQKSLSLSP light: not shown	130 IL6R-G1d/IL6R-L=100	9.8 IL6R-G1d/IL6R-L=100	14.4 G1d=100
IL6R-P750/IL6R-L (antibody, human IgG1, kappa) heavy: QVQLQESGPGLVKPSETLSLTCAVSGHSISHDHAWSWVRQPPGEGLEWIGFISYSGITNYNPSLQGRVTISRDNSKNTLYLQMNSLRAEDTAVYYCARSLARTTAMDYWGEGTLVTVSSASTKGPSVFPLAPSSKSTSGGTAALGCLVKDYFPEPVTVSWNSGALTSGVHTFPAVLQSSGLYSLSSVVTVPSSSLGTQTYICNVNHKPSNTKVDKKVEPKSCDKTHTCPPCPAPELFGQDSVMLFPPKPKDTLMISRTPEVTCVVVDVSPEDPEVKFNWYVDGVEVHNAKTKPREEQENSTYRVVSVLTVLHQDWLNGKEYKCAVSNKALPAPIEKTISKAKGQPREPQVYTLPPSRDELTKNQVSLTCLVKGFYPSDIAVEWESNGQPENNYKTTPPVLDSDGSFFLYSKLTVDKSRWQQGNVFSCSVMHEALHNHYTQKSLSLSP light: not shown	48.1 IL6R-G1d/IL6R-L=100	6.1 IL6R-G1d/IL6R-L=100	1.2 G1d=100
